# Measured values reported in patent US20240390512A1, “METHODS OF TREATING CHEMOTHERAPY-RESISTANT CANCER WITH AN ANTIBODY-DRUG CONJUGATE” (DAIICHI SANKYO COMPANY, LIMITED, priority 2021, published 2024).
# T1: human CDH6 (full-length and EC domain deletion mutants) (Homo sapiens, UniProt P55285, DEL269-383)
# T1 construct: each one of the five EC domains could be deleted from full-length human CDH6; 3xFLAG (deletion mutants only, from the vector p3×FLAG-CMV-9); expressed in transfected cells; host or cells: 293α cells
# T1 sequence (P55285 with tags, fused parts or gaps DEL269-383): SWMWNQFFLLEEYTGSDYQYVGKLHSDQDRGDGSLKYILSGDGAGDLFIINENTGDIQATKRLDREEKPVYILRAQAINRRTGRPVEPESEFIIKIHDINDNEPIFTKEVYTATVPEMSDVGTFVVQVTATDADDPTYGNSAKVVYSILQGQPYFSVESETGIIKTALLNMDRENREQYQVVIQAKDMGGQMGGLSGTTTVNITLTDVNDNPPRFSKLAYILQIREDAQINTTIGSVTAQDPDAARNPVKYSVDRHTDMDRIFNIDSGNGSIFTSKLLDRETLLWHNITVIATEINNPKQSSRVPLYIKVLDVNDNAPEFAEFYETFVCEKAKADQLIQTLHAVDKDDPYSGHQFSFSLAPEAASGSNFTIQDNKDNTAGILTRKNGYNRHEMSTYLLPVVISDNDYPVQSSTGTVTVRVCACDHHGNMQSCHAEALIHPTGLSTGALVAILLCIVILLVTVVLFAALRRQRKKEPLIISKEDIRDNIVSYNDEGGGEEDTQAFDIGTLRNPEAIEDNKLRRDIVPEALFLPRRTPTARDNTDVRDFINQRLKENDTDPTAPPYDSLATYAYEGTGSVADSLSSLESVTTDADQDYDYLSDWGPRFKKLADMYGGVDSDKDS
# T2: human CDH6 (full-length and EC domain deletion mutants) (Homo sapiens, UniProt P55285, DEL487-608)
# T2 construct: each one of the five EC domains could be deleted from full-length human CDH6; 3xFLAG (deletion mutants only, from the vector p3×FLAG-CMV-9); expressed in transfected cells; host or cells: 293α cells
# T2 sequence (P55285 with tags, fused parts or gaps DEL487-608): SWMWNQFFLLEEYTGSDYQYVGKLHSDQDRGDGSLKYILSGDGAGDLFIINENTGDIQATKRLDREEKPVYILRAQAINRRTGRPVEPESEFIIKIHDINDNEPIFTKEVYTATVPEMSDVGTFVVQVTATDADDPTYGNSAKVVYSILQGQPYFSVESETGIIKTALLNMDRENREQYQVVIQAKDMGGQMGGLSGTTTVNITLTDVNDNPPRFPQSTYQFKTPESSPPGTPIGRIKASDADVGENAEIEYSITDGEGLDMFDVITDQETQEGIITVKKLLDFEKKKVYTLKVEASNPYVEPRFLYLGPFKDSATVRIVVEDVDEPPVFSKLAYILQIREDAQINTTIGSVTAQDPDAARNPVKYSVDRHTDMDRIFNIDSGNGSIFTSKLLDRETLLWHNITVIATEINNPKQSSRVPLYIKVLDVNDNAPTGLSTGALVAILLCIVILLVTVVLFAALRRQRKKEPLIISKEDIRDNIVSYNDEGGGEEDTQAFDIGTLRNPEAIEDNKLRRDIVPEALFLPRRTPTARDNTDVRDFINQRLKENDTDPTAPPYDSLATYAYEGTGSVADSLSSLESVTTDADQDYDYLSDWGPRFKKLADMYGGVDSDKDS
# Columns and labels:
# [1] = target: T1, human CDH6 (full-length and EC domain deletion mutants); assay: Epitope analysis of rat anti-CDH6 antibody by flow cytometry using domain deletion mutants; type: binding; conditions: flow cytometry; transfected 293α cells; antibody 20 nM
# Excerpt: (§1) The full-length extracellular region of human CDH6 has five extracellular domains, EC1 (SEQ ID NO: 2), EC2 (SEQ ID NO: 3), EC3 (SEQ ID NO: 4), EC4 (SEQ ID NO: 5), and EC5 (SEQ ID NO: 6). A gene to be expressed such that each one of the five EC domains could be deleted from full-length human CDH6 was synthesized by GeneArt, and incorporated into p3×FLAG-CMV-9 vectors for mammalian expression (Sigma-Aldrich Co. LLC) according to a method known to a person skilled in the art in order to produce an expression vector for each domain deletion mutant lacking any one of EC1 to EC5.
# (§2) The epitopes to which the rat anti-human CDH6 antibodies bound were identified by flow cytometry analysis using a 293α cell line transfected with each EC domain deletion vector. Using Lipofectamine 2000 (Thermo Fisher Scientific Inc.), each domain deletion mutant expression vector produced in Reference Example 2)-2-1, or pcDNA3.1-hCDH6 for the expression of full-length human CDH6 was transiently introduced into a 293α cell line, which was a cell line derived from HEK293 cells by stable transfection with integrin αv and integrin […] expression vectors. The cells were cultured overnight under conditions of 37° C. and 5% CO2, and thereafter, a cell suspension was prepared. The suspension of the transfected 293α cells was centrifuged, and a supernatant was then removed. Thereafter, the cells were suspended by the addition of each of the 4 rat anti-CDH6 monoclonal antibodies (clone Nos: rG019, rG055, rG056 and rG061), which had been prepared in Reference Example 1)-7, or rat IgG control (R&D Systems, Inc.) (final concentration: 20 nM). The cells were left standing at 4° C. for 1 hour. The cells were washed twice with PBS supplemented with 5% FBS, and then suspended by the addition of Anti-Rat IgG (whole molecule)-FITC antibody produced in rabbit (Sigma-Aldrich Co. LLC) that had been 50-fold diluted with PBS supplemented with 5% FBS. The cells were left standing at 4° C. for 1 hour. The cells were washed twice with PBS supplemented with 5% FBS, followed by detection using a flow cytometer (Canto II; BD Biosciences). The data was analyzed using FlowJo (Tree Star, Inc.). In the histograms of FIGS. 2-1 to 2-6, the abscissa depicts FITC fluorescence intensity indicating the amount of the antibody bound, and the ordinate depicts cell count. […] Fluorescence intensity is enhanced when the antibody binds to full-length hCDH6 or each EC domain deletion mutant on the surface of cells. The rat IgG control binds to none of the transfected cells.
# [2] = target: T2, human CDH6 (full-length and EC domain deletion mutants); assay: as above; type: binding; conditions: flow cytometry; transfected 293α cells; antibody 20 nM
# Excerpt: as §1, §2
binding to EC3 deletion mutant [1],binding to EC5 deletion mutant [2],Molecule
do not bind,bind,"rG019: rat anti-human CDH6 monoclonal antibody produced by hybridoma rG019; variable regions SEQ ID NO: 10 and 15 (antibody, listed as Rattus norvegicus, V domains shown) VL: DIQMTQSPSLLSASVGDRVTLNCKASQNIYKNLAWYQQKLGEGPKLLIYDANTLQTGIPSRFSGSGSGSDFTLTISSLQPEDVATYFCQQYYSGWAFGGVTNLELKRA VH: QVQLQQSGAELVKPGSSVKISCKASGYTFTRNFMHWIKQQPGNGLEWIGWIYCGDGETEYNQKFNGKATLTADRSSSTAYMELSRLTSEDSAVYFCARGVYGGFAGGYFDFWGQGVMVTVSS"
do not bind,bind,"rG056: rat anti-human CDH6 monoclonal antibody produced by hybridoma rG056; variable regions SEQ ID NO: 30 and 35 (antibody, listed as Rattus norvegicus, V domains shown) VL: DVQMTQSPSSLAASPGESVSISCRATKSIGIYLAWYQQKPGKTFKLLIYSGSTLQSGTPSRFSGSGSGTDFTLTIRSLEPEDFGLYFCQQFYENPFTFGSGTKLEIRRA VH: EVQLQESGPGLVKPSQSLSLTCSVTDYSITTYFWGWIRKFPGNKMEWMGYMSYRGGTSYNPSLKSRISITRDTSKNQFFLQLNSVTTEDTATYYCARCPNYGGHSLVFDYWGQGVMVTVSS"
do not bind,bind,"rG055: rat anti-human CDH6 monoclonal antibody produced by hybridoma rG055; variable regions SEQ ID NO: 20 and 25 (antibody, listed as Rattus norvegicus, V domains shown) VL: DVQMTHSPSYLAASPGESVSISCKTSKNISNYLVWYQQKPGEAYKLLIYSGSTLQSGTPSRFSGSGSGTDFTLTIRSLEPEDFGLYFCQQYYEKPFTFGSGTKLEIKRA VH: EVQLQESGPGLVRPSQSLSLSCSVTDYSITSNYWGWIRRFPGNKMEWMGYITYSGYTSYNPSLQSRISITRDTSKNQFFLQLNSVTAEDTATYYCARSINHGGYSYVVDAWGPGASVTVSS"
do not bind,bind,"rG061: rat anti-human CDH6 monoclonal antibody produced by hybridoma rG061; variable regions SEQ ID NO: 40 and 45 (antibody, listed as Rattus norvegicus, V domains shown) VL: DVQMTQSPSYLAASPGESVSISCKATKSISNYLAWYQQKPGEAYKVLIYSGSTLQSGTPSRFSGSGSGTDFTLTIRSLEPEDFGLYSCQQYYEKPLTFGSGTKLEIKRA VH: EVQLQESGPGLVKPSQSLSLTCSVTGYSITTYYWGWIRKFPGNKMEWMGYISYSGRTSYNPSLKSRMSITRDASKNQFFLQLNSVTTDDTATYYCARSPINHGGYWYFDFWGPGTMVTVSS"
